According to patent US20220267469A1 (LIPUM, published 2022):

Experiments:
[1] = target: T1, Biotinylated human BSSL (human, UniProt P19835 21-753, Biotinylated on glycosacarides, 30-40 biotin/BSSL); assay: flow cytometry displacement assay; 3.0 ug antibody, 1 ug b-hBSSL
T1 construct: hBSSL biotinylated in house; also called b-hBSSL; human BSSL-biotin
T1 sequence: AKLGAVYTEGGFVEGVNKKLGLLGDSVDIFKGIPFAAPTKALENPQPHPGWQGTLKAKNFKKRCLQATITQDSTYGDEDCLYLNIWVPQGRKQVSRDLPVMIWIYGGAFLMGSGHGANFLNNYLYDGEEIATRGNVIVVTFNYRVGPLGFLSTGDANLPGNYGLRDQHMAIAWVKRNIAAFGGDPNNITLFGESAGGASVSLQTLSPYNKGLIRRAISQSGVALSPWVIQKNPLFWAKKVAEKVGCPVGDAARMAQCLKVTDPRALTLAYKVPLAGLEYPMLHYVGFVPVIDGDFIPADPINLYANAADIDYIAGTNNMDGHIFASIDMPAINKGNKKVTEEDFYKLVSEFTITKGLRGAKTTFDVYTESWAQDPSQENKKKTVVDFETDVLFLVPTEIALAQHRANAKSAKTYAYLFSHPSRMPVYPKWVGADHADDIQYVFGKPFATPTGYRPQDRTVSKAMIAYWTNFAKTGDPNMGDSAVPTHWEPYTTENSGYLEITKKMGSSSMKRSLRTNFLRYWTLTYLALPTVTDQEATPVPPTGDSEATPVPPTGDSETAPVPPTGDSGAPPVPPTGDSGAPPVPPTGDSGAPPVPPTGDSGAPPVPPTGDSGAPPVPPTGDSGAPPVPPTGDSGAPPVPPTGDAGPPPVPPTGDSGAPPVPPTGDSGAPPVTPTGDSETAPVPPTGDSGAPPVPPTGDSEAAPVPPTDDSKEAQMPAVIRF
Procedure, shortened: (§1)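 Antibody (0.5–3.0 μg per reaction) preincubated with 1 μg biotinylated human BSSL in PBS pH 7.4, 30 min at 4 °C, then with human buffy coat 30 min at 4 °C. After erythrocyte lysis/fixation, bound BSSL on CD14+ monocytes detected by labelled streptavidin via flow cytometry.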

[2] = target: T1, Biotinylated human BSSL; assay: flow cytometry displacement assay; 2.0 ug antibody, 1 ug b-hBSSL
Experimental: The 28 BSSL-specific hIgG4 antibodies and the five reference antibodies at different concentrations (ranging from 0.5 μg to 3.0 μg per reaction; see Table 10) were added to b-hBSSL (1 μg per reaction, see Table 2) in round-bottom polystyrene tubes, lx PBS (pH 7.4) was added to a final volume of 20 μl and the antibody/b-hBSSL mixtures were incubated for 30 min. at +4° C. to facilitate binding of antibodies to BSSL. Buffy coat (50 μl) was then added to each antibody/b-hBSSL mixture and incubation continued for another 30 min at +4° C. Thereafter, 2 ml of FACS lysing solution (BD Biosciences) was added and the cells were incubated for 10 min at room temperature in order to lyse erythrocytes and fix the white blood cells. The cells were then centrifuged for 5 min. at 200×g, the resulting pellets were washed by adding 2 ml of FACS buffer (1×PBS supplemented with 1% FCS and 0.1% NaN3) and centrifuged again. Finally, the supernatants were discarded and the cells were resuspended in the last drop of liquid, approximately 50 μl.
5 μl of BV421-labelled anti-human CD14 (BD Biosciences) and 5 μl of BB515-labelled streptavidin (BD Biosciences) was added to each tube and incubated for 30 min, at +4° C., protected from light. Thereafter, cells were washed twice with FACS buffer, resuspended in 500 μl FACS buffer, and run on BD LSRII flow cytometer (BD Biosciences). Finally, data were analyzed using FlowJo software (BD Biosciences).

[3] = target: T1, Biotinylated human BSSL; assay: flow cytometry displacement assay; 0.5 ug antibody, 1 ug b-hBSSL
Procedure, shortened: as §1

[4] = target: T2, Human BSSL (bile salt-stimulated lipase), native (human, UniProt P19835 21-753); assay: SPR single cycle kinetics, antibody immobilised, second set of experiments
T2 construct: Native full-length protein purified from human milk (Astra Hässle AB); also called hBSSL; non-biotinylated human BSSL
T2 sequence: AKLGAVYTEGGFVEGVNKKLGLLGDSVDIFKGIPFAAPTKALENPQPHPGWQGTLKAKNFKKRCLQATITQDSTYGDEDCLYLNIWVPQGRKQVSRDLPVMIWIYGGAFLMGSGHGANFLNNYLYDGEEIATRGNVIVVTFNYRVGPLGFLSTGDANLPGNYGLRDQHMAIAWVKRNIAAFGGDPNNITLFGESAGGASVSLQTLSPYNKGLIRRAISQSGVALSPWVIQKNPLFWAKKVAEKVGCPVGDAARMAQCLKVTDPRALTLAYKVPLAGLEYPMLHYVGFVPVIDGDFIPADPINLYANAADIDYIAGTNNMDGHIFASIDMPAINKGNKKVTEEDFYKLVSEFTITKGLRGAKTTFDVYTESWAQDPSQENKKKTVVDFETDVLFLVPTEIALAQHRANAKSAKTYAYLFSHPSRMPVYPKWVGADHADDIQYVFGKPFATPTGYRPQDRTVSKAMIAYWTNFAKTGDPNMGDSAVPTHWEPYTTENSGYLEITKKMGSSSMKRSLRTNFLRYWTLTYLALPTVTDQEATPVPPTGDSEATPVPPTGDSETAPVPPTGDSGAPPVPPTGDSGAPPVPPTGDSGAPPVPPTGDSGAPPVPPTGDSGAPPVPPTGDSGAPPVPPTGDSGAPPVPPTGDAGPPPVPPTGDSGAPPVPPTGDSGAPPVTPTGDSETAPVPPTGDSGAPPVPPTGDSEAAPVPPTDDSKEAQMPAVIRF
Experimental: (§2) SPR measurements were performed with a BIACORE® T200 instrument (GE Healthcare). In order to minimize avidity effects, the antibody was immobilized on the sensor surface and BSSL was injected as the analyte. Immobilization of AS20 mlgG1 was performed by amine coupling to a BIACORE® CM5 (carboxylated dextran surface) sensor chip. The chips were activated by injection of a 1:1 mixture of 0.2 M N-ethyl-N′-[(dimethylamino)peopyl]carbodiimide (EDC) and 0.05 M N-hydroxysucciminimde (NHS) with a contact time of 7 minutes. The antibody was injected for 0.2-2.8 minutes diluted to 14-50 μg/ml in 10 mM acetate-HCl pH 5.0 (set one) or pH 6.0 (set two) to reach final immobilization levels of between 560 and 830 RU. Remaining activated carboxyl groups on the sensor surface were deactivated with an injection of 1 M ethanolamine for 7 minutes.
(§3) In the second set of experiments the running buffer was 25 mM TrisHCl, pH 7.5, 150 mM NaCl. 146 mM H₃PO₄ was used as the standard regeneration solution. The kinetic studies and the non-linear regression analysis were made according to the Single Cycle Kinetics (SCK) method of the BIACORE® T200 instrument and evaluation software. The interaction between mBSSL and AS20 mlgG1 was analyzed with steady state affinity model.

[5] = target: T3, Mouse BSSL, recombinant (mouse, UniProt Q64285 21-599); assay: SPR steady state analysis, antibody immobilised, second set of experiments
T3 construct: Bought (R&D Systems, Cat. no 5658-CE); also called mBSSL; murine BSSL
T3 sequence: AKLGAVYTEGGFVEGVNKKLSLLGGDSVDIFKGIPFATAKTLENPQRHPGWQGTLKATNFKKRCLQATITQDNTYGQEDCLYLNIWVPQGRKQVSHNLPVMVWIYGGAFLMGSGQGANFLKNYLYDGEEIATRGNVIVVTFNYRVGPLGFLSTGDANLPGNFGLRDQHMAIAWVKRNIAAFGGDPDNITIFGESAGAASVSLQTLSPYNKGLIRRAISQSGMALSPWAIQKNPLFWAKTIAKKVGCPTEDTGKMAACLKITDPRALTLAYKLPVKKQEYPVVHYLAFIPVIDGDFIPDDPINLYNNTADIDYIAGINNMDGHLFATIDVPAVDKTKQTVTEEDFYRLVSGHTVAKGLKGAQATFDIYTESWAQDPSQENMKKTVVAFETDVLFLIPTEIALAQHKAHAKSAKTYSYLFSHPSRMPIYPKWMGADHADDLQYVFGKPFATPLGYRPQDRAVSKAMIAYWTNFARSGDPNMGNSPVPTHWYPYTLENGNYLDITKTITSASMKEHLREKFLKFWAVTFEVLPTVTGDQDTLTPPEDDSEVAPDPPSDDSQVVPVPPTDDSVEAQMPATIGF
Experimental: as §2, §3

[6] = target: T1, Biotinylated human BSSL; assay: flow cytometry displacement assay; 1.5 ug antibody, 1 ug b-hBSSL
Procedure, shortened: as §1

[7] = target: T2, Human BSSL (bile salt-stimulated …); assay: SPR single cycle kinetics, antibody immobilised, first set of experiments
Experimental: as §2, §3

[8] = target: T1, Biotinylated human BSSL; assay: flow cytometry displacement assay; 1.0 ug antibody, 1 ug b-hBSSL
Procedure, shortened: as §1

[9] = target: T3, Mouse BSSL, recombinant; assay: SPR steady state analysis
Experimental: as §2, §3

percentage reduction of b-hBSSL binding to CD14+ monocytes [1]: 80% | percentage reduction of b-hBSSL binding to CD14+ monocytes [2]: 74% | percentage reduction of b-hBSSL binding to CD14+ monocytes [3]: 31% | Kd [4]: 1.1 nM | koff [4]: 0.00025 s⁻¹ | kon [4]: 230000 M⁻¹ s⁻¹ | Kd [5]: 155 nM | percentage reduction of b-hBSSL binding to CD14+ monocytes [6]: 72% | Kd [7]: 2.8 nM | koff [7]: 0.00027 s⁻¹ | kon [7]: 97000 M⁻¹ s⁻¹ | percentage reduction of b-hBSSL binding to CD14+ monocytes [8]: 66% | fold weaker affinity than for human BSSL [9]: ~100 fold
B1: AS20 mouse IgG1 (antibody, V domains shown)
VH: QVQLQQPGAELVKPGASVKMSCKASGYTFTSYNMHWVKQTPGQGLEWIGVIYPGNGDTSYNQKFKGKATLTADKSSSTAYMQLSSLTSEDSAVYYCARDYYGSSPLGYWGQGTTLTVSS
VL: QIVLTQSPAVMSASPGEKVTMTCSASSSISYMHWYQQKPGTSPKRWIYDTSKLASGVPARFSGSGSGTSYSLTISSMEAEDAATYYCHQRSSYPTFGGGTKLEIK
notes: also called AS20 mlgG1; AS20 mIgG1
